Assay results taken from US20260274955A1 (JANUX THERAPEUTICS, published 2026).

Target: T1, anti-CD28 Fab (SEQ ID NOs: 202, 203)
T1 construct: biotinylated and captured on neutravidin coated plates in the phage ELISA
Experiment: phage binding ELISA on captured biotinylated Fab;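 also: clonal phage supernatants added to wells preincubated with CD28 antigen or blocking buffer only, bound phage detected by ELISA with horseradish-conjugated anti-M13 antibody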
Experimental: After panning, phage infected bacteria were plated out and colonies picked into 96 well blocks. Clonal phage was then amplified and separated from bacterial cells via centrifugation.
Clonal phage were harvested as crude supernatants and screened via standard ELISAs. […] Prior to the addition of clonal phage, wells were incubated with blocking buffer and CD28 antigen or blocking buffer alone. Without washing or aspirating, clonal phage supernatants were then added to the wells and incubated for a short time. Wells were then washed followed by detection of bound phage using a horse radish conjugated anti-M13 antibody. Clonal phage of interest were then sent for sequence analysis.

T1 sequence (VH, as listed by the source, chain 1 of 2): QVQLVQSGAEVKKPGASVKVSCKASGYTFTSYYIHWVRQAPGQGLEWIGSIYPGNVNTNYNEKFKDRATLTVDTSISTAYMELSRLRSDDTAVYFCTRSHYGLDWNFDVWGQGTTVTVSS
T1 sequence (VL, as listed by the source, chain 2 of 2): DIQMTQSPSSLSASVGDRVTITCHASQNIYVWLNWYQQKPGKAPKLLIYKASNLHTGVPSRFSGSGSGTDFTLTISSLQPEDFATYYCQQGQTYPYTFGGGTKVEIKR

Row | Binder | Anti-CD28 Fab (SEQ ID NOs: 202, 203) signal
1 | WCWDYKLWVPMTCP [Phage-11] | 2.51
2 | DCWWMFESYPGRCI [Phage-12] | 1.65
3 | TCSAGATYTWPKCF [Phage-891] | 1.87
4 | TCSEGATYTWPWCF [Phage-954] | 2.05
5 | YCAGHSHEYLAKCE [Phage-24] | 0.86
6 | SCSAGAHYPWPQCF [Phage-898] | 1.16
7 | TCAAGATYLWPTCL [Phage-903] | 1.68
8 | MCSAGAMYKWPLCL [Phage-912] | 2.32
9 | MCSAGAMYSWPLCL [Phage-918] | 2.29
10 | TCAAGAAWPWPQCL [Phage-890] | 2.23
11 | YCAGHAWQYINKCL [Phage-13] | 0.64
12 | ECHWSMWAVGHACF [Phage-9] | 1.77
13 | TCAAGAAWGWPLCF [Phage-893] | 2.3
14 | WCWYYREWVPMTCP [Phage-14] | 1.85
15 | TCSAGAAYSWPACF [Phage-896] | 1.89
16 | LCAAGASWPWPVCL [Phage-888] | 2.16
17 | WICDKSGSIMLCRA [Phage-17] | 0.91
18 | TCSAGAAYPWPLCL [Phage-895] | 2.36
19 | TCSAGATWAWPLCF [Phage-902] | 2.31
20 | YCAGHMPQYEVKCL [Phage-21] | 0.22
21 | TCAAGAHYPWPACL [Phage-904] | 1.92
22 | HCAAGAHYPWPACL [Phage-968] | 2
23 | SCSAGAAYYWPWCL [Phage-901] | 1.9
24 | YCAGHSPINIGKCL [Phage-10] | 1.49

Row | Binder | Anti-CD28 Fab (SEQ ID NOs: 202, 203) signal
25 | TCAAGAMWAWPVCL [Phage-911] | 2.32
26 | TCAAGAMWHWPVCL [Phage-962] | 2.03
27 | TCSAGAHYPWPICL [Phage-900] | 1.78
28 | LCAAGATYPWPLCL [Phage-894] | 2.39
29 | LCAAGFKYPWPLCL [Phage-964] | 2.02
30 | YCAAGATYPWPLCL [Phage-952] | 2.08
31 | LCAAGATYAWPLCL [Phage-945] | 2.13
32 | LCAAGATYPWPTCL [Phage-897] | 1.71
33 | MCAAGATYPWPACL [Phage-914] | 2.3
34 | LCAAGASYPWPTCL [Phage-967] | 2
35 | MCAAGATYPWPLCL [Phage-970] | 1.99
36 | LCAAGATYPWPFCL [Phage-919] | 2.28
37 | TCSAGATYAWPFCL [Phage-913] | 2.31
38 | TCAAGATWSWPACF [Phage-892] | 2.23
39 | YCAGMSTIQLWLKC [Phage-20] | 2.16
40 | YCAGHTEEHYVKCM [Phage-22] | 0.62
41 | LCSAGAMYPWPTCL [Phage-922] | 2.25
42 | LCSAGAMYSWPTCL [Phage-909] | 2.39
43 | MCSAGAMYPWPTCL [Phage-959] | 2.04
44 | LCSAGAMWPWPTCL [Phage-908] | 2.39
45 | YWYCSPSIVRCVLV [Phage-15] | 1.51
46 | YCMGHSHEHIWKCL [Phage-23] | 0.87
47 | DCPWLSGFSRPLLC [Phage-19] | 1.27
48 | TCSAGATYEWPRCL [Phage-899] | 1.84
